Source: patent US20250250308A1, “METHODS AND COMPOSITIONS WITH ANTIFUNGAL ACTIVITY” (priority 2022, published 2025)
Values joined by “and” are separate entries in the source; they are usually repeats but may differ in a detail not shown here. Equal entries are not always repeated.

B1: EntV: 68 amino acid active C-terminal form of the E. faecalis bacteriocin EntV (SEQ ID NO: 14) (protein, listed as Enterococcus faecalis)
chain: LGSCVANKIKDEFFAMISISAIVKAAQKKAWKELAVTVLRFAKANGLKTNAIIVAGQLALWAVQCGLS

Experiments:
C. neoformans = assay: Survival of C. elegans infected with C. neoformans; format: in vivo; conditions: 1 nM peptide
Description: FIGS. 6A-6D: EntV peptides have activity against many fungal species and strains. Survival over time of C. elegans infected with C. auris, (FIG. 6A), C. neoformans, (FIG. 6B), and C. albicans, (FIG. 6C), paired clinical isolates before (AzS: fluconazole-susceptability) and after gaining fluconazole resistance (AzR), (FIG. 6D). Peptides were added at 1 nM and fluconazole at 4 ug/ml. Statistical differences in survival were compared to animals to the DMSO vehicle control by Mantel-Cox log rank analysis. An n of 60 was used and one representative trial is shown. Exact p values from top to bottom: (FIG. 6A) <0.0001, <0.0001, (FIG. 6B) <0.0001, <0.0001, (FIG. 6C) 0.0013, 0.0004, 0.0035, (FIG. 6D) 0.0050, 0.0040, 0.5539.
EntV peptides have activity against other fungal species and strains. […] Paired clinical isolates of C. albicans, in which fluconazole-resistance had been gained following in-patient evolution were tested and it was determined that animals infected with both the original strain as well as the fluconazole-resistant descendent were protected by EntV ([…]).
Killing of C. elegans by C. albicans. […] Plates were incubated at 25° C., and worm death was scored daily. Kaplan-Meier survival curves were generated and analyzed as described in the quantification and statistical analysis section.

C. albicans [1] = assay: Rat venous catheter biofilm model; format: in vivo; conditions: 24 h
Description: The wild-type 12-mer (SEQ ID NO: 4) is protective in a rat venous catheter model of C. albicans infection. C. albicans can form prodigious biofilms on implanted medical devices and the presence of an intravenous catheter is, by itself, a significant risk factor for developing disseminated candidiasis. These infections are notoriously difficult to treat and are associated with the drug resistance characteristic of biofilms. Thus, full-length EntV was tested in a model in which an intravenous catheter is implanted into the jugular vein of rats and inoculated with C. albicans with or without the peptide. After 24 hours, the catheter is removed and sectioned to assess fungal burden by plating for CFUs and by scanning electron microscopy (SEM). […] As the minimal peptide length was determined, this model utilized along with the 12-mer peptide, this time at a lower concentration to probe the extent of protection.
Rat catheter model: The protocol for the rat catheter biofilm was conducted as previously described (Andes, et al., 2004). Briefly, indwelling central venous catheters in rats were inoculated with 1×10^6 cells/mL C. albicans with or without 100 nM EntV or 20 nM 12-mer peptide (group size was 3). To quantitate fungal burden after 24 h, the catheter was removed, and 1 cm of the tip placed in a one milliliter of sterile 0.9% NaCl followed by vortexing. A 1:10 serial dilution of this wash fluid was plated on SDA and colonies counted after 24 h of growth at 35° C. For scanning electron microscopy (SEM), catheters were fixed overnight in 4% formaldehyde and 1% glutaraldehyde in PBS. The catheters were then washed with PBS and treated with 1% osmium tetroxide in PBS for 30 min. Serial ethanol washes and critical point drying were used to dry the segments before they were mounted, and palladium-gold coated. All images were taken using a SEM LEO 1530, with Adobe Photoshop CC (20.0.4 release) used for image compilation.

C. albicans [2] = assay: Killing of C. elegans by C. albicans (survival of infected nematodes); format: in vivo; conditions: for Median survival: C. albicans infected C. elegans exposed to 1 nM peptide, one value per trial
Description: The α7 helix is sufficient to protect C. elegans and inhibit surface adhesion. Based on this structural characterization, fragments of EntV were examined to identify those structural moieties that retained antifungal activity. Synthetic peptides were generated of each of the four alpha helices (plus two flanking amino acids) from the active C-terminus of EntV—α4, α5, α6 and α7 (FIG. 1A) as well as an α4-α6 construct. The peptides were tested for their ability to protect C. elegans against C. albicans infection as established in previous work (Cruz et al., 2013; Graham et al., 2017).
Killing of C. elegans by C. albicans. The methodology used for the C. elegans infection assays was performed, with a few modifications, as described ((Breger et al., 2007; Cruz et al., 2013; Graham et al., 2017; Peleg et al., 2008)). Briefly, C. elegans glp-4(bn2); sek-1(km-4) (Breger et al., 2007) nematodes were propagated and maintained on E. coli strain OP50(Brenner, 1974) that was seeded onto nematode growth medium (NGM) agar using standard techniques (Hope, 1999). To synchronize the animals, L1 stage worms on non-starved plates were washed off, filtered through a 10 μm filter (pluriSelect, pluriStrainer 10 μm), harvested by centrifugation, transferred to OP50 seeded plates, and grown to the L4 stage. To prepare the infection plates, C. albicans strain […] (Gillum et al., 1984) was grown in YPD broth for 24 h at 37° C. with agitation. 500 μl of the culture was plated onto BHI solid medium containing gentamycin (10 μg/ml) and grown for 24 h at 37° C. The synchronized, L4 C. elegans were washed off the OP50 plates in 2 ml sterile M9 buffer and washed once, centrifuging at 750×g for 30 seconds to collect animals. Animals were infected by placing them on the SC5314 lawn for 4 h at 25° C. Following this exposure, they were washed off the plate and washed four times with 2 ml of sterile M9. The nematodes were then pipetted (˜30 per well with 2 wells per condition for a total of ˜60 worms assayed) into six-well plates with 2 ml of liquid medium (20% BHI broth and 80% M9) containing the indicated concentrations of test compounds. Plates were incubated at 25° C., and worm death was scored daily. Kaplan-Meier survival curves were generated and analyzed as described in the quantification and statistical analysis section.

human cells = conditions: cited from earlier work
C. albicans [3] = assay: Killing of C. elegans by C. albicans (survival of infected nematodes); format: in vivo; conditions: original strain and fluconazole-resistant descendent; 1 nM
mouse cells = conditions: cited from earlier work
C. albicans [4] = assay: Growth of C. albicans in shaking cultures; format: cell-based
Description: These shorter peptides are no longer bacteriocins, having separated the antifungal and antibacterial activities. Furthermore, despite its robust protection against infection, EntV is not toxic to C. albicans. Growth of C. albicans was unaffected when EntV was added to shaking cultures in concentrations as high as 30 μM

| Molecule | Survival of C. elegans infected with C. neoformans (C. neoformans) | Catheter surface biofilm by SEM (C. albicans [1]; 20 nM) | Reduction of catheter fungal burden (C. albicans [1]; 20 nM) | Protection of C. elegans from C. albicans infection (survival) (C. albicans [2]; 1 nM peptide) | Median survival (C. albicans [2]) | Catheter fungal burden (CFUs) (C. albicans [1]; 100 nM, detection limit 100 CFU) | Toxicity to human cells (human cells) | Protection of C. elegans infected with paired C. albicans clinical isolates (C. albicans [3]) | Toxicity to mouse cells (mouse cells) | Highest concentration at which growth of C. albicans was unaffected (C. albicans [4]) |
| --- | --- | --- | --- | --- | --- | --- | --- | --- | --- | --- |
| VAGQLALWAVQC [12aa] | protected C. neoformans infected worms from death | largely clear of fungal biofilm | 1.5 logs | as effective in protecting against C. albicans infection in the worm model and inhibiting surface adhesion as full-length EntV | 11 days and 10 days and 12 days and 10.5 days and 9.5 days |  |  |  |  |  |
| B1 |  |  |  |  | 11 days and 10.5 days and 13 days and 12 days and 10 days and 9.5 days and 9 days | below the limit of detection | no toxicity | protected | no toxicity | ≥ 30 µM |
